{"source": "paper PMC6615252", "about": "“The binding affinity of PTPN13’s tandem PDZ2/3 domain is allosterically modulated” (BMC Molecular and Cell Biology, 2019)", "origin": "cited, not measured here", "molecules": {"B1": {"name": "PARG1: RhoGAP protein PARG1 (protein, UniProt Q52LW3 1-1261, looked up)", "Rho GTPase-activating protein …": "MIAHKQKKTKKKRAWASGQLSTDITTSEMGLKSLSSNSIFDPDYIKELVNDIRKFSHMLLYLKEAIFSDCFKEVIHIRLEELLRVLKSIMNKHQNLNSVDLQNAAEMLTAKVKAVNFTEVNEENKNDLFQEVFSSIETLAFTFGNILTNFLMGDVGNDSLLRLPVSRETKSFENVSVESVDSSSEKGNFSPLELDNVLLKNTDSIELALSYAKTWSKYTKNIVSWVEKKLNLELESTRNMVKLAEATRTNIGIQEFMPLQSLFTNALLNDIESSHLLQQTIAALQANKFVQPLLGRKNEMEKQRKEIKELWKQEQNKMLEAENALKKAKLLCMQRQDEYEKAKSSMFRAEEEHLSSSGGLAKNLNKQLEKKRRLEEEALQKVEEANELYKVCVTNVEERRNDLENTKREILAQLRTLVFQCDLTLKAVTVNLFHMQHLQAASLADSLQSLCDSAKLYDPGQEYSEFVKATNSTEEEKVDGNVNKHLNSSQPSGFGPANSLEDVVRLPDSSNKIEEDRCSNSADITGPSFIRSWTFGMFSDSESTGGSSESRSLDSESISPGDFHRKLPRTPSSGTMSSADDLDEREPPSPSETGPNSLGTFKKTLMSKAALTHKFRKLRSPTKCRDCEGIVVFQGVECEECLLVCHRKCLENLVIICGHQKLPGKIHLFGAEFTQVAKKEPDGIPFILKICASEIENRALCLQGIYRVCGNKIKTEKLCQALENGMHLVDISEFSSHDICDVLKLYLRQLPEPFILFRLYKEFIDLAKEIQHVNEEQETKKNSLEDKKWPNMCIEINRILLKSKDLLRQLPASNFNSLHFLIVHLKRVVDHAEENKMNSKNLGVIFGPSLIRPRPTTAPITISSLAEYSNQARLVEFLITYSQKIFDGSLQPQDVMCSIGVVDQGCFPKPLLSPEERDIERSMKSLFFSSKEDIHTSESESKIFERATSFEESERKQNALGKCDACLSDKAQLLLDQEAESASQKIEDGKTPKPLSLKSDRSTNNVERHTPRTKIRPVSLPVDRLLLASPPNERNGRNMGNVNLDKFCKNPAFEGVNRKDAATTVCSKFNGFDQQTLQKIQDKQYEQNSLTAKTTMIMPSALQEKGVTTSLQISGDHSINATQPSKPYAEPVRSVREASERRSSDSYPLAPVRAPRTLQPQHWTTFYKPHAPIISIRGNEEKPASPSAAVPPGTDHDPHGLVVKSMPDPDKASACPGQATGQPKEDSEELGLPDVNPMCQRPRLKRMQQFEDLEGEIPQFV"}}, "test_system": "PDZ4 domain of PTPN13", "details": "ref [39]; cited from earlier work", "source_text": "This might also explain as to why the observed in vitro affinities of PTPN13 for APC and PRK2 are low in comparison to known examples for PDZ-ligand interactions.", "data": [{"molecule": "B1", "values": [{"measurement": "binding to PDZ4 domain", "value": "binds"}]}]}
